Results published in patent US20080242590A1, “New Method 706” (ASTRAZENECA AB, priority 2007, published 2008).

Assays:
[1] = molecular target: amyloid β peptide 1-40 (human) (human); assay: cell-based or functional assay
[2] = molecular target: amyloid β peptide 1-42 (human) (human); assay: cell-based or functional assay
Sequence of amyloid β peptide 1-42 (human) (human) (peptide, as listed by the source): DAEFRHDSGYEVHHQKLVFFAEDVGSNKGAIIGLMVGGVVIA

Sequence of amyloid β peptide 1-40 (human) (human) (peptide, as listed by the source): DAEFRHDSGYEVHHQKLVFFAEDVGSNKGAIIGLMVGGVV

% degradation of amyloid β 1-40 in APPswe-tg mouse plasma at highest concentration (100 µg/ml), 1 h room temperature, ELISA [1]: 71%
% degradation of amyloid β 1-40 in human plasma at highest concentration (100 µg/ml), 1 h room temperature, ELISA [1]: 66%
Amyloid β 1-40 peptide degradation (remaining peptide by Gyrolab immunoassay), batch 1, 2.4 µg/ml, 300 nM peptide, 2.5 h at 37 °C in buffer [1]: 50%
Amyloid β 1-40 peptide degradation (remaining peptide by Gyrolab immunoassay), batch 2, 2.4 µg/ml, 300 nM peptide, 2.5 h at 37 °C in buffer [1]: 42%
EC50 of degradation of Aβ 1-40 in APPswe-tg mouse plasma [1]: 470 nM
EC50 of degradation of Aβ 1-40 in human plasma [1]: 580 nM
% degradation of Aβ 1-42 in APPswe-tg mouse plasma at highest concentration (100 µg/ml), 1 h room temperature, ELISA [2]: 34%
% degradation of Aβ 1-42 in human plasma at highest concentration (100 µg/ml), 1 h room temperature, ELISA [2]: 28%
EC50 of degradation of Aβ 1-42 in APPswe-tg mouse plasma [2]: 1300 nM
EC50 of degradation of Aβ 1-42 in human plasma [2]: 250 nM
B1: Fc-Neprilysin fusion protein (human IgG2 hinge and Fc domain fused N-terminally to the extracellular domain of human Neprilysin) (Fc fusion)
chain: ERKCCVECPPCPAPPVAGPSVFLFPPKPKDTLMISRTPEVTCVVVDVSHEDPEVQFNWYVDGVEVHNAKTKPREEQFNSTFRVVSVLTVVHQDWLNGKEYKCKVSNKGLPAPIEKTISKTKGQPREPQVYTLPPSREEMTKNQVSLTCLVKGFYPSDIAVEWESNGQPENNYKTTPPMLDSDGSFFLYSKLTVDKSRWQQGNVFSCSVMHEALHNHYTQKSLSLSPGKYDDGICKSSDCIKSAARLIQNMDATTEPCTDFFKYACGGWLKRNVIPETSSRYGNFDILRDELEVVLKDVLQEPKTEDIVAVQKAKALYRSCINESAIDSRGGEPLLKLLPDIYGWPVATENWEQKYGASWTAEKAIAQLNSKYGKKVLINLFVGTDDKNSVNHVIHIDQPRLGLPSRDYYECTGIYKEACTAYVDFMISVARLIRQEERLPIDENQLALEMNKVMELEKEIANATAKPEDRNDPMLLYNKMTLAQIQNNFSLEINGKPFSWLNFTNEIMSTVNISITNEEDVVVYAPEYLTKLKPILTKYSARDLQNLMSWRFIMDLVSSLSRTYKESRNAFRKALYGTTSETATWRRCANYVNGNMENAVGRLYVEAAFAGESKHVVEDLIAQIREVFIQTLDDLTWMDAETKKRAEEKALAIKERIGYPDDIVSNDNKLNNEYLELNYKEDEYFENIIQNLKFSQSKQLKKLREKVDKDEWISGAAVVNAFYSSGRNQIVFPAGILQPPFFSAQQSNSLNYGGIGMVIGHEITHGFDDNGRNFNKDGDLVDWWTQQSASNFKEQSQCMVYQYGNFSWDLAGGQHLNGINTLGENIADNGGLGQAYRAYQNYIKKNGEEKLLPGLDLNHKQLFFLNFAQVWCGTYRPEYAVNSIKTDVHSPGNFRIIGTLQNSAEFSEAFHCRKNSYMNPEKKCRVW
